Laboratory results: patent US20150141335A1, “THERAPEUTIC USES OF FIBROBLAST GROWTH FACTOR 21 PROTEINS” (Eli Lilly and Company, published 2015)

How the values were obtained:
wild type mouse βKlotho = biological target: T1, wild type mouse βKlotho (mouse, UniProt Q99N32); experiment: cell-based or functional assay
T1 sequence: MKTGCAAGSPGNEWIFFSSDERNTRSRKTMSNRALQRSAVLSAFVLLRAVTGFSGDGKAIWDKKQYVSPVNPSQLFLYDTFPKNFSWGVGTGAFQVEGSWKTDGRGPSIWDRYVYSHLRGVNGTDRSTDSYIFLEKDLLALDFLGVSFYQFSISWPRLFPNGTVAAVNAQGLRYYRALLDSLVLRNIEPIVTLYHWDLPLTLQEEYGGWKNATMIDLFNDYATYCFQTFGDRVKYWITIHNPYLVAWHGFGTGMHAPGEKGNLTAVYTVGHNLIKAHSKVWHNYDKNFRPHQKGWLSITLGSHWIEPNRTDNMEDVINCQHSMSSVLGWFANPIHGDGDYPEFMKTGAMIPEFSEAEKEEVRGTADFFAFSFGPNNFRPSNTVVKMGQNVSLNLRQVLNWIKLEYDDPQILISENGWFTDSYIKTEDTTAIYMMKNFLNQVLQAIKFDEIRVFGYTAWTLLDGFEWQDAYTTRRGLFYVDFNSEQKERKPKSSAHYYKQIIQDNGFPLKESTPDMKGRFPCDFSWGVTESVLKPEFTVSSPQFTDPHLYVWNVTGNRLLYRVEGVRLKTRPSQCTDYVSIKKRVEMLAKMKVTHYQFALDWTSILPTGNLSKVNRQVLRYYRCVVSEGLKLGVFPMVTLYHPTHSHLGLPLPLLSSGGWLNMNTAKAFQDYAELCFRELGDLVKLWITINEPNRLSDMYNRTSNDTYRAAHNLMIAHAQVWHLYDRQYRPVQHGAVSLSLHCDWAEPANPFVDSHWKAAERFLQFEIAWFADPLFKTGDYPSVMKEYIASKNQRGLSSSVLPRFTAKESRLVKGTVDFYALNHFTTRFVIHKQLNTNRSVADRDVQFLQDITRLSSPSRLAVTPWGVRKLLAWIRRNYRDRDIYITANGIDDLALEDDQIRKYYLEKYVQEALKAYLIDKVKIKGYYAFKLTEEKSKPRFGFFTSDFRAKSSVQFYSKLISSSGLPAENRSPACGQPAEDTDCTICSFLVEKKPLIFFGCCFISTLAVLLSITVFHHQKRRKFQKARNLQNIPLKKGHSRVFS

human βKlotho = human βKlotho (human, UniProt Q86Z14); experiment: cell-based or functional assay

glucose uptake (2-deoxy-D-(14C) glucose) in 3T3-L1-βKlotho fibroblasts, in vitro potency (EC50) (wild type mouse βKlotho): 26 pM
SRE driven luciferase in 293-βKlotho-SRE luc cells, in vitro potency (EC50) (human βKlotho): 250 pM
B1: FGF21 protein of SEQ ID NO: 1 (ligand)
chain: HPIPDSSPLLQFGGQVRQRYLYTDDAQQTECHLEIREDGTVGCAADQSPESLLQLKALKPGVIQILGVKTSRFLCQRPDGALYGSLHFDPEACSFREDLLEDGYNVYQSEAHGLPLHLPGDKSPHRKPAPRGPARFLPLPGLPPALPEPPGILAPQPPDVGSSDPLRLVEPSQLLSPSFLG
